This is an account of results in the DeepSol protein solubility set.

This series in a line: soluble on expression in E. coli; label from the status in PepcDB or PDB records.
As to “MNAGKEFNYYTYQSDSSQGSLQKAPDENTDYFTHKMNSYLPFDMSTLYANQPTEKIQILQEIYDTERTYVKALTIVDEIFIQQLNLWCPKSKKCFRSMFGEISAICKTHQILLESLQCKPIAEVFTKFVPFLKLYTSYASHYPNSLKIFAKLMSRNDFRKALTKIEEDPRVDGKKLQTYLIMPIQRIPRYIMLIQNLMNYSTEKDDMTNLYKALSGMQGLSDQIQSCMTAYENGERLLQIQLNFGLDGHILEPGRVLLKEGMLYKRELNGSANYQETVVFLFNDILLYGIKRISVMPLCKYEPSAILSLRHCIVQLDDIGGSIFIRCGDVGVDFTAYSLGGVTEWYNEICDAIDNAKKLRDTLRKESFKQKSLIFDKGFWQRNRDKLRNMITADMTGNISRVLTRKKPAPKLEESDFLRGQWTTSTIASNQRKRKVATLEDEEEDVFNMLSSPNLSQRKRKATLQENTPSGVGWTASPRSSSFRKRRASTLRNKNADVTDGNNYLSHLVLNDVTMTQPYTGLNAFVGTPKSRTPTDDDYDSDRDYVWTDDEEFVSDDKKIPIRRVASYDEEDRRPRDFSEVRRSVASEPPRRHLAVDDIRKLSYQQRSLEPFNMVTEDDDEDDIIDIKVKGERPRPWWETESAPPAIKNQKSSIIDSIRNSCAIM”, the “soluble on expression in E. coli” value is reported as “not soluble”.
In the case of “MNALTALSPLDGRYASKCDALRPFLSEFGLIHARVTVEVRWLQALSNHAGIIEVAPFSTETNAALDSIVANFSEDDANRIKEIERTTNHDVKAVEYFLKEKIAGLDELKNAGEFIHFACTSEDINNLSHALMLKNGREVLVSSMKQILNAIAALATTHAEQPMLSRTHGQTASPTTLGKEMANVAYRLARQIKQFENVELLGKINGAVGNYNAHLSAYPDIDWAAHSQAFVESLGLTFNPYTTQIEPHDYMAELFDALRRYNTILIDFNRDVWGYISLGYFKQKLKDGEVGSSTMPHKVNPIDFENSEGNLGIANAVLGHLGEKLPVSRWQRDLTDSTVLRNMGVGFAQSLIAFDACLKGIGKLELNAARLAEDLNQAQEVLAEPIQTVMRRYNVEKPYEKLKALTRGQAMTRDMMVNFVNGDELSQVPAEERARLAEMTPASYTGNAADQAKQINDLINKI” it was “not soluble”; in that of “MNATAVAAAATGRQLHKFGGSSLADVKCYLRVANIMANYSHPGDLMVVSAAGSTTNQLISWLKLSQNDRLSAHQVQQSLRRYQHDLINGLLPPEMAEPLISEFIHDLERLAGLLDNKIDDVIYAEVVGHGEIWSARLMSALLNKLDMDAVWLDARRFLRAERAAQPQIDESRSYPLLQQLMAQHPHQRLVVTGFISRNEAGETVLLGRNGSDYSATQVGALAGAERVTIWSDVAGVYSADPRKVKDACLLPLLRLDEASELARLAAPVLHTRTLQPVSGSDIDLQLRCSYQPEQGSTRIERVLASGLGAKIVTSHDDVCLIELQIASHHDFSLAQKEIDLLLKRAQIKPLATGIHPDRNLLQLCYTSEVVNSALRVLEDAALPGKLSLREGLALVALVGAGVSKNPLHSHRFYQQLKDQPVEFVWQAEDGISMVAVLRLGPTEHLIQGLHQSLFRAEKRIGLMLFGKGNIGARWLELFAREQKSLSARSGFEFVLAGVVDSRRSLLSYDGLDASRTLAFYNDEAKEQDEESLFLWMRAHPFDDLVVLDVTASPSLAEQYLDFASYGFHVISANKLAGASSSNNYRQIRDAFAKTGRHWLYNATVGAGLPVNHTVRDLRDSGDSILAISGIFSGTLSWLFLQFDGSVPFTELVDQAWQQGLTEPDPRVDLSGQDVMRKLVILAREAGYDIEPNQVRVESLVPAGAESGSVDQFFENGEALNQQMIQRLEAAKEMGLVLRYVARFDANGKARVGVEAVRTDHPLASLLPCDNVFAIESRWYRDNPLVIRGPGAGRDVTAGAIQSDLNRLSQLL”, “not soluble”; in that of “MNDNEIGNPPIKALIVFRENGDTDNLFVPILCDAIRTTGIDVRCSTNEFWNSDTPYDIIHFQWPEEVMEGNCDDPDRICRLKECIAFFRSRGARFVYTRHNVRPHDANEVIGRAYDIIEEQSDVVVHMGRYSLDEFAAKHADSRNVIIPHPIYQYTYKEDISVERARQYLNLPQEAFIVTSFGKFRNREERRMVTGAFRKWDEAKKFLLAPRLYPFSRFNRYGSNFFKRWTSRAGYYLLIPLLNRLRRMHAGASDEPIDNCDLPYYMAASDVIFIQRKDILNSASIPLAFLFHKVVIGPNIGNIGEILQDTGNPVFHPDNQFDIIRALEAARQLSARRKGEDNYAYAIENMNSGKIGKEYAELYRNLANLSL”, “not soluble”.
Then “MNECGHCSVKVGEESAILTNGKVWHVNHLLCDLCNCRINDGERCVPQNGVILCSECHIKTTRPICKGCGEFIKTNLCEALNSTWHPTCFQCSVCQKPLEVDFHQLPNRMCVHSDCFWDLQLRMIVCKDLPK”, with “not soluble”; and “MNEDNSPSSNEGKKEKAEGPSRKSFFERLGQLFQGEPKDRQELVDVIRDSEVNDLIDHDTRDMLEGVMEISEMRVRDIMIPRSQMVTVERTDDLDTLIALITDAQHSRYPVISEDKDHVEGILLAKDLLKYLGSGSNPFDIEEVIRPAVVVPESKRVDRLLKEFREERYHMAIVVDEFGGVSGLVTIEDILEEIVGDIEDEFDESEETDIRKLSKHTFAVRALTTIEEFNETFGTNFSDEEVDTVGGMVMTAFGHLPSRGELVEIEGYNFKVTAADNRRVIQLQVTIPDEETLVEATQE”, with “not soluble”; and “MNEIIMLLRTIPTSKLIQPIMQLFIDNAILNIVQNDALLIEKATHARNHLRLWSLQGHRDIPNLEHHHHHH”, with “not soluble”.
Regarding “MNEIKNLKQYSKAAERFEGAHLLCPGCAHGMIVREVLNATDDPLILSSATGCLEVSTAVYPYTSWDVPWIHIGFENSSTAVAGAEAMYKALERKGKLYSEKKPKFVAFGGDGSTYDIGFQYISGCFERGHNMTYICLDNEVYANTGGQRSGSTPIGASTTTTPAGRVSYGKKDKKKDILQIMAAHGAPYVAQVAPNKWKDMAKKLKMALETEGPTFINAMSACTTEWKFESNLTVEVSDLAVDSLVFPLYEIINGTELNITYRPKNIVPVRDYLAAQGRFKHLFKKENEHIIEQWQKEVDARWVYLQKREEARV”, the “soluble on expression in E. coli” value is reported as “not soluble”.
Then “MNEKEKIIEYWRRRARECLDDAKLLLKNERLHSAVNRIYYALFYQVSALLLAKGLSFSKHSGVLAAFNREFVKTGKVNKELGKFYNRMFEHRKTGDYGELVEFEEENVKDWIRKAEGFLDAIEKLIEDLKRA”, with “not soluble”; and “MNELTGADFKSATADDNKKLFIETYGCQMNVADSEVIASVMQMAGYSVAETLEEADAVFMNTCSIRDNAEQKILNRLEFFHSMKKKKKHLIVGVLGCMAERVKDDLIEHHHVDLVVGPDAYLTLPELIASVEAGEKAMNVELSTTETYRDVIPSRICGNHISGFVSIMRGCNNFCTYCIVPYTRGRERSRDVESILNEVADLVSKGYKEITLLGQNVNSYRFEKEGGEVVTFPMLLRLVAEAAPGIRVRFTTSHPKDMSDETLEVIAQVPNVCKHIHLPVQSGSSRILKLMNRKYTREWYLDRVAAIKRIVPDCGLTTDIFSGFHSETEEDHRESLSLMEACGYDAAFMFKYSERPGTYASKHLEDNVPEEIKVRRLNEIIALQNRLSAESNNRCIGKTYEVLVEGVSKRSRDQLFGRTEQNRVVVFDRGTHRIGDFVNVRITEASSATLKGEEVFSLEHHHHHH”, with “not soluble”; and “MNEQPAACRIKVEALGAGFAPAAEQWAERLGLALQVDEAEFALQVGEQGLQLQQLGPDAPGPVRVDFVEGGAAHRRLYGGGSGQMIAKAVGVAQGVRPRVLDATAGLGKDGFVLATLGCEMSLIERQPLIGALLEDGLARAAQDAEVGPIVARMHLLKGNSIELMRNWQGEPPQVIYLDPMFPHREKSALVKKEMRLFRPLVGDDNDAPALLAAALALASHRVVVKRPRKAPCIEGPKPSHGLEGKSSRYDIYPKKALKALEHHHHHH”, with “not soluble”.
In the case of “MNETSHEASECPAAVITGGARRIGHSIAVRLHQQGFRVVVHYRHSEGAAQRLVAELNAARAGSAVLCKGDLSLSSSLLDCCEDIIDCSFRAFGRCDVLVNNASAYYPTPLLPGDDTNGAADAKPIDAQVAELFGSNAVAPLFLIRAFARRQGEGGAWRSRNLSVVNLCDAMTDLPLPGFCVYTMAKHALGGLTRAAALELAPRHIRVNAVAPGLSLLPPAMPQETQEEYRRKVPLGQSEASAAQIADAIAFLVSKDAGYITGTTLKVDGGLILARA” it was “soluble”; in that of “MNFEDVFREFGELWYDIEFVLTTVIKTKNVTPILTLSGEFCVPGIHALYNIFHIMISVLRIFQKVKHDTWHLVTDYVNILETRLKPFERTPCFITNTALETIIQELCEYWRMLENVPCKDIRSIEGARFTENDWKNELIRIGLSDIFPELVEFFDAGYQVLLNIAQNGDTLKTSDLICHLESTQAFCFSSRFKFLEVASDIQQGIYPKFRNSVNVFIGIASKSESLLPHLKARSRYEGILSAMQVDKQLVPPPIQICHKLIIDAETVSNPTPVPQQLEKKTENCSECSDVRMEMYTVKDVLQNVQKQLKNMQQNSEQFETKLVASDNKTKNFEKQLEDERRKNNKHLESSRKTLISKNEQLEALKRRATALSNCQAENQTLKFKIAEHHDLEKQLNISNKDVTQARDQLSGQISELEIQLKSELKNVEHLNKEHKKAIDLANEISKLKTEIERETSISKQLEKEISQLRTETDEMNIVITQSLEMENLQLRDVTKKFETENASLLKTNQQLSIQNEEQKRLIQVLLEKQQTAPSSSDFPVPSTQMTDNEENSRQQLWKYQKIKDSFRDGMKLRKAEAMVKKLTSLDRDLGVHQMAHRELENFKKLTSYYLQAIEMNIPKIKNNGSSDLEQLPEAPKFSNEFMRFYRNATGKQPLTSSSSSSANPRSTHIEGSSISTMPSTSSRGNVQHHSGSAVRGQSITPTGLSQVPMSPRKLFSQPDIVTASVPSTELDDTECAICLDEMTNFKETIKCECRRRFHLKCATKWLNEKRECPTCRKLLLNPADYPPLN”, “not soluble”.
Then “MNFEGKIALVTGASRGIGRAIAETLAARGAKVIGTATSENGAQAISDYLGANGKGLMLNVTDPASIESVLEKIRAEFGEVDILVNNAGITRDNLLMRMKDEEWNDIIETNLSSVFRLSKAVMRAMMKKRHGRIITIGSVVGTMGNGGQANYAAAKAGLIGFSKSLAREVASRGITVNVVAPGFIETDMTRALSDDQRAGILAQVPAGRLGGAQEIANAVAFLASDEAAYITGETLHVNGGMYMV”, with “soluble”.
On to “MNFFTSPFSGIPLDQQVTNPNIIVGKHSYYSGYYHGHSFDDCVRYLHPERDDVDKLVIGSFCSIGSGAVFMMAGNQGHRSDWISTFPFFYQDNDNFADARDGFTRSGDTIIGHDVWIGTEAMIMPGVKIGHGAIIASRSVVTKDVAPYEVVGSNPAKHIKFRFSDVEIAMLLEMAWWNWPESWLKESMQSLCSSDIEGLYLNWQSKART”, for which the “soluble on expression in E. coli” value is “not soluble”.
Then “MNFISLSIFSEHLKSLFPFFTPNPFLNANVAVNDDVSSPNSSVTANYGHGTRACYTHRMGRFLSPKKAFFRFSLIN”, with “not soluble”.
For “MNFKLNNTLSNEINTLIIGIPEHLNQLERISFNHIDITESLERLKHQHIIGSKVGKIYTTAFDVQDQTYRLITVGLGNLKTRSYQDMLKIWGHLFQYIKSEHIEDTYLLMDSFISKYDQLSDVLMACGIQSERATYEFDHYKSSKKAPFKTNLNLISESLIELDFIHEGISIGQSINLARDFSNMPPNVLTPQTFAEDIVNHFKNTKVKVDVKDYDTLVSEGFGLLQAVGKGSKHKPRLVTITYNGKDKDEAPIALVGKGITYDSGGYSIKTKNGMATMKFDMCGAANVVGIIEAASRLQLPVNIVGVLACAENMINEASMKPDDVFTALSGETVEVMNTDAEGRLVLADAVFYANQYQPSVIMDFATLTGAAIVALGDDKAAAFESNSKVILNDILQISSEVDEMVFELPITATERASIKHSDIADLVNHTNGQGKALFAASFVTHFSGQTPHIHFDIAGPATTNKASYNGPKGPTGFMIPTIVQWLKQQ”, the “soluble on expression in E. coli” value was “not soluble”.
